# In publication PMC3046144:
# Biological target: H5N1 A/Vietnam/1203/2004 HA1 (1-330) protein from 293 Flp-In cells (influenza A virus A/Vietnam/1203/2004 (H5N1))
# Test: SEC
substance,measurement,value
H5N1 A/Vietnam/1203/2004 HA1 (1-330) protein from 293 Flp-In cells (domain or fragment),stoichiometry N,3
